Results taken from publication PMC3840788, “The role of Cdc42 and Gic1 in the regulation of septin filament formation and dissociation” (eLife, 2013).

T1: septin-Cdc11Δ complex (Cdc3, Cdc10, Cdc12) (yeast (S. cerevisiae), UniProt P32457 1-520; P25342 1-322; P32468 1-407)
T1 construct: Cdc3, yeast septin; Cdc10, yeast septin; Cdc12, yeast septin; Septin complex devoid of the Cdc11 subunit; copies: + +
T1 sequence (looked up) 1: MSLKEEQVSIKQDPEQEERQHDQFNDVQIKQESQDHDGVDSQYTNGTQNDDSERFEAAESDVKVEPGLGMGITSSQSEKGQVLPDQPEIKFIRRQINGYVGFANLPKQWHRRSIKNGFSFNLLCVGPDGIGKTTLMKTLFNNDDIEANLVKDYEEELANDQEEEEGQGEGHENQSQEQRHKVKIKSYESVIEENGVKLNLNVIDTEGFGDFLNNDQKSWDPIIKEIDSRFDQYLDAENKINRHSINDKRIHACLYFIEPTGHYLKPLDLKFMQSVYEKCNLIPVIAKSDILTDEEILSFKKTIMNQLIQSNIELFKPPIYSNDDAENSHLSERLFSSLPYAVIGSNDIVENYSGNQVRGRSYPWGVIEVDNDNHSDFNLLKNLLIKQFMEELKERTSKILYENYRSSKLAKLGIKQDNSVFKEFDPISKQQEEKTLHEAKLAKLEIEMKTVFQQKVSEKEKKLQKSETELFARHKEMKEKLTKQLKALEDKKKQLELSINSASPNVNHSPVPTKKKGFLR
T1 sequence (looked up) 2: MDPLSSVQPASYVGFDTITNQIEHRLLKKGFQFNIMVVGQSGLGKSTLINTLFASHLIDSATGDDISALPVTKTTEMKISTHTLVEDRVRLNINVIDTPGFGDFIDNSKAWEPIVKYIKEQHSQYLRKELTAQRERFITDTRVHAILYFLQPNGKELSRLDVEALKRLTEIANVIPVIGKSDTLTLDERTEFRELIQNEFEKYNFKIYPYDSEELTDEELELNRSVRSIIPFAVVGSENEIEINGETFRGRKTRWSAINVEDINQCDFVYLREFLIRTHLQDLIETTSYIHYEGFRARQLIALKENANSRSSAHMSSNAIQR
T1 sequence (looked up) 3: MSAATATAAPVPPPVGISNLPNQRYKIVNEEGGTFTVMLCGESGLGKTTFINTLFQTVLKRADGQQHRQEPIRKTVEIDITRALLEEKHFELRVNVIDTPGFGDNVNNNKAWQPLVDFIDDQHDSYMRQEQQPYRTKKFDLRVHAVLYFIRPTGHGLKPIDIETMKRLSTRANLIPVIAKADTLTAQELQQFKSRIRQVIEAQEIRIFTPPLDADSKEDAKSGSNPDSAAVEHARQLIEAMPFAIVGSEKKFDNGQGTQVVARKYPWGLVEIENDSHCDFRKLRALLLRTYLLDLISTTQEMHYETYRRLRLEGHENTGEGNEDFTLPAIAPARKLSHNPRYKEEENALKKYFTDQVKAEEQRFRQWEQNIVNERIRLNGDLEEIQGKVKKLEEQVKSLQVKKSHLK

T2: Cdc10(30-322) (subunit of the septin-Cdc10(30-322) complex) (yeast (S. cerevisiae), UniProt P25342 30-322)
T2 construct: Never tested alone: it stood inside the complex m5
T2 sequence (looked up): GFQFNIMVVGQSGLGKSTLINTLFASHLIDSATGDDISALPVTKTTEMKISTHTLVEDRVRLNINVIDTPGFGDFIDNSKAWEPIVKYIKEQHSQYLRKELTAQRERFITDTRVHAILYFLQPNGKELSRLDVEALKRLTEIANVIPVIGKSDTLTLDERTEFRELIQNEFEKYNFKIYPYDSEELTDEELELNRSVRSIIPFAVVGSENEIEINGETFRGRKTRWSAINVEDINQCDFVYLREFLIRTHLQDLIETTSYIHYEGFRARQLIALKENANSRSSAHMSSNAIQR

T3: Cdc10 (subunit of the purified yeast septin complex) (yeast (S. cerevisiae), UniProt P25342 1-322)
T3 construct: Cdc10, yeast septin; Never tested alone: it stood inside the complex m2; the subunit that is touched was assigned from antibody labelling, complexes lacking subunits and the known order of the subunits; source: subunit of the septin complex expressed and purified as described earlier (Farkasovsky et al., 2005)
T3 sequence (looked up): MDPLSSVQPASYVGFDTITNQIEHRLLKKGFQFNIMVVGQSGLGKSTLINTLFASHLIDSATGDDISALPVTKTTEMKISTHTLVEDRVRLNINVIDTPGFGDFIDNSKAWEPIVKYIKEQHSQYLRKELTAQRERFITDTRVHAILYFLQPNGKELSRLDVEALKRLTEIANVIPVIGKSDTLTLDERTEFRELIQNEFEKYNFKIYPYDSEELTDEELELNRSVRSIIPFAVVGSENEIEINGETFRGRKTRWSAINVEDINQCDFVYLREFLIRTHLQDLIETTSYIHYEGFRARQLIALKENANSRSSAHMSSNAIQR

B1: yeast septin complex (Cdc3, Cdc10, Cdc11, Cdc12) (complex, yeast (S. cerevisiae))
chain 1: MSLKEEQVSIKQDPEQEERQHDQFNDVQIKQESQDHDGVDSQYTNGTQNDDSERFEAAESDVKVEPGLGMGITSSQSEKGQVLPDQPEIKFIRRQINGYVGFANLPKQWHRRSIKNGFSFNLLCVGPDGIGKTTLMKTLFNNDDIEANLVKDYEEELANDQEEEEGQGEGHENQSQEQRHKVKIKSYESVIEENGVKLNLNVIDTEGFGDFLNNDQKSWDPIIKEIDSRFDQYLDAENKINRHSINDKRIHACLYFIEPTGHYLKPLDLKFMQSVYEKCNLIPVIAKSDILTDEEILSFKKTIMNQLIQSNIELFKPPIYSNDDAENSHLSERLFSSLPYAVIGSNDIVENYSGNQVRGRSYPWGVIEVDNDNHSDFNLLKNLLIKQFMEELKERTSKILYENYRSSKLAKLGIKQDNSVFKEFDPISKQQEEKTLHEAKLAKLEIEMKTVFQQKVSEKEKKLQKSETELFARHKEMKEKLTKQLKALEDKKKQLELSINSASPNVNHSPVPTKKKGFLR
chain 2: MDPLSSVQPASYVGFDTITNQIEHRLLKKGFQFNIMVVGQSGLGKSTLINTLFASHLIDSATGDDISALPVTKTTEMKISTHTLVEDRVRLNINVIDTPGFGDFIDNSKAWEPIVKYIKEQHSQYLRKELTAQRERFITDTRVHAILYFLQPNGKELSRLDVEALKRLTEIANVIPVIGKSDTLTLDERTEFRELIQNEFEKYNFKIYPYDSEELTDEELELNRSVRSIIPFAVVGSENEIEINGETFRGRKTRWSAINVEDINQCDFVYLREFLIRTHLQDLIETTSYIHYEGFRARQLIALKENANSRSSAHMSSNAIQR
chain 3: MSGIIDASSALRKRKHLKRGITFTVMIVGQSGSGRSTFINTLCGQQVVDTSTTILLPTDTSTEIDLQLREETVELEDDEGVKIQLNIIDTPGFGDSLDNSPSFEIISDYIRHQYDEILLEESRVRRNPRFKDGRVHCCLYLINPTGHGLKEIDVEFIRQLGSLVNIIPVISKSDSLTRDELKLNKKLIMEDIDRWNLPIYNFPFDEDEISDEDYETNMYLRTLLPFAIIGSNEVYEMGGDVGTIRGRKYPWGILDVEDSSISDFVILRNALLISHLHDLKNYTHEILYERYRTEALSGESVAAESIRPNLTKLNGSSSSSTTTRRNTNPFKQSNNINNDVLNPASDMHGQSTGENNETYMTREEQIRLEEERLKAFEERVQQELLLKRQELLQREKELREIEARLEKEAKIKQEE
chain 4: MSAATATAAPVPPPVGISNLPNQRYKIVNEEGGTFTVMLCGESGLGKTTFINTLFQTVLKRADGQQHRQEPIRKTVEIDITRALLEEKHFELRVNVIDTPGFGDNVNNNKAWQPLVDFIDDQHDSYMRQEQQPYRTKKFDLRVHAVLYFIRPTGHGLKPIDIETMKRLSTRANLIPVIAKADTLTAQELQQFKSRIRQVIEAQEIRIFTPPLDADSKEDAKSGSNPDSAAVEHARQLIEAMPFAIVGSEKKFDNGQGTQVVARKYPWGLVEIENDSHCDFRKLRALLLRTYLLDLISTTQEMHYETYRRLRLEGHENTGEGNEDFTLPAIAPARKLSHNPRYKEEENALKKYFTDQVKAEEQRFRQWEQNIVNERIRLNGDLEEIQGKVKKLEEQVKSLQVKKSHLK
notes: Cdc3, yeast septin; Cdc10, yeast septin; Cdc11, yeast septin; Cdc12, yeast septin; Octamer at high salt (500 mM NaCl), filaments at low salt (100 mM NaCl); also called septin octamers; septin filaments; source: expressed and purified as described earlier (Farkasovsky et al., 2005); copies: 2 + 2 + 2 + 2

Tests used:
[1] = target: the molecule itself; assay: SEC; gel filtration of purified Gic1(104-314) alone against protein standards; calculated 23.38 kDa, elutes at 49 kDa; monomer to dimer
[2] = target: T1, septin-Cdc11Δ complex (Cdc3, Cdc10, …); assay: negative-stain electron microscopy with single particle analysis; 0.3 µM septin hetero-oligomers, alone or with 1.5 µM Gic1, dialysed overnight at 4°C from high-salt buffer against low-salt buffer (100 mM NaCl, 20 mM Tris-HCl pH 7.5, 1 mM DTT); antibody labelling against Cdc11; adsorbed to a lipid monolayer; details: both partners purified
[3] = target: T2, Cdc10(30-322) (subunit of the …); assay: as above; details: both partners purified
[4] = target: T4, septin-Cdc10(30-322) complex (Cdc3, Cdc10(30-322), Cdc11, Cdc12) (yeast (S. cerevisiae), UniProt P32457 1-520; P25342 30-322; P32458 1-415; P32468 1-407); assay: as above; details: both partners purified
T4 construct: Cdc3, yeast septin; Cdc11, yeast septin; Cdc12, yeast septin; Seen by EM as tetramers or inside-out octamers; no filaments at low salt; also called polymerization-impaired septin complexes; non-polymerizing septin; copies: + + +

[5] = target: T3, Cdc10 (subunit of the purified yeast …); assay: as above; details: both partners purified
[6] = target: B1; assay: as above; details: both partners purified
[7] = target: the molecule itself; assay: negative-stain electron microscopy with single particle analysis; 0.1 µM septin octamers, with or without 0.5 µM Gic1; Cdc42-GppNHp or Cdc42-GDP at the concentration of Gic1 or 10 times higher (0.25, 1.5, 5 µM), 2 to 60 min; antibody labelling against Cdc3

binding result [2] | binding result [3] | binding result [4] | binding result [5] | binding result [6] | Binder | stoichiometry N [1] | binding result [7]
binds | binds | binds | binds | binds | Gic1(104-314) (domain or fragment, yeast (S. cerevisiae), UniProt P38785 104-314, looked up, Gic1, yeast, residues 104-314 (N-terminal 103 amino acids deleted); gic1(310-942) in nucleotides; contains the CRIB domain and the C-terminus; Called simply Gic1 throughout the text; The methods say GST was cleaved with thrombin; Dimer by gel filtration; source: E. coli BL21 (DE3) Rosetta, purified (Ni-NTA, glutathione sepharose, Superdex S200)) MFKKKDLLSRRHGSAKTAKQSSISTPFDFHHISHANGKREDNPLESHEEKHDVESLVKFTSLAPQPRPDSNVSSKYSNVVMNDSSRIVSSSTIATTMDSHHDGNETNNTPNGNKQLDSPTDLEMTLEDLRNYTFPSVLGDSVSEKTNPSSPSVSSFSGKFKPRELSALHTPELGNCFNVDQSLNSPGNRISVDDVLKFYYQCSETSTPRNT | ~2 | 
 |  |  |  |  | B1 |  | binds
